This is an account of results in the nanobody polyreactivity screen of Harvey et al. (2022).

A short description of the data set: yeast display, Sf9 membrane polyspecificity reagent, FACS + sequencing; frameworks hold sequencing errors. The method in brief:
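Galactose-induced (36–48 hours) yeast carrying a synthetic nanobody display library were exposed to 10% biotinylated, detergent-solubilized Sf9 membrane reagent at 4 °C for 1 hour. FACS followed streptavidin microbead enrichment, using low and high (top ~1%) gates for expression (anti-HA) and reagent binding (streptavidin). Colony PCR, MiSeq 2 × 250 sequencing and CDR-length filtering followed. Labels for polyreactivity reflect the gate of origin.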
On to “QVQLVESGGGLVQAGGSLRLSCAASGRILGFYAMGWDRQAPGKERELVARINWSGTRTYYADSVKGRFTISRDNAKNTVYLQMNSLKPEDTAVYYCAAERYPYVVTYSKLDYWGQGTQVTVSS”, for which the “polyreactivity (PSR sort gate)” value is recorded as “high polyreactivity”. Next, “QVQLVESGGGLVQAGGSLRLSCAASGRILGKNTMGWYRQAPGKEREFVAAISASGGRTYYADSVKGRFTISRDNAKYTVYLQMNSLKPEDTAVYYCAAARSRYSYATGFDYWGQGTQVTVSS”: “high polyreactivity”; “QVQLVESGGGLVQAGGSLRLSCAASGRILGRKAMGWYRHAPGKEREYVAAISSGGNTYYADSVKGRFTISRDNAKNTVYLQMKSLKPEDTAVYYCNADPDTYVSTITHDSWGQGTQVTVSS”: “low polyreactivity”; “QVQLVESGGGLVQAGGSLRLSCAASGRILGRYAMGWYRQAPGKERELVAAITSGGNTTYADSVKGRFTISRDNAKNTVYLQMNSLKPEDTAVYYCAAYSYTQLNLMDYWGQGSQVTVSS”: “low polyreactivity”. For “QVQLVESGGGLVQAGGSLRLSCAASGRILHEYAMGWYRQAPGKERELVAAITFSGTSTYYADSVKGRFTISRDNAKNTVYLQMNSLKPEDTAVYYCAADTYGGSRDYWGQGTQVTVSS” the value was “low polyreactivity”. For the sequence “QVQLVESGGGLVQAGGSLRLSCAASGRILHGYTMGWYRQAPGKERELVAAITSGGSTYYADSVKGRFTISRDNAKNTVYLQMNSLKPEDTAVYYCAAASYRHEEYYWGQGTQVTVSS”, the “polyreactivity (PSR sort gate)” value is reported as “high polyreactivity”. For “QVQLVESGGGLVQAGGSLRLSCAASGRILIVNTMGWYRQAPGKERELVAAISSGGTTYYADSVKGRFTISRDNAKNTVYLQMNSLKPEDTAVYYCAAKRAGAEYDYWGQGTQVTVSS” the value was “high polyreactivity”; for “QVQLVESGGGLVQAGGSLRLSCAASGRILKYYAMGWYRQAPGKERELVAAITSDVNTYYADSVKGRFTISRDNAKNTVYLQMNSLKPEDTAVYYCNADADDYRDYQDYDYWGQGTQVTVSS”, “low polyreactivity”. Next, “QVQLVESGGGLVQAGGSLRLSCAASGRILLFYAMGWYRQAPGKERELVASIDYSGGSTTYADSVKGRFTISRDNAKNTVYLQMNRLKPEDTAVYYCNAEAWWYFWFDYWGQGTQVTVSS”: “low polyreactivity”; “QVQLVESGGGLVQAGGSLRLSCAASGRILPRNAMGWYRQAPGKERELVAAISWDGGSTYYADSVKGRFTISRDNAKNTVYLPMIRLKPEDTAVYYCATDYPSLHRGMDYWGQGTQVTVSS”: “low polyreactivity”. Next, “QVQLVESGGGLVQAGGSLRLSCAASGRILPRNAMGWYRQAPGKERELVATIDYSVGSTYYADSVKGRFTISRDNAKNTVYLQMNSLKPEDTAVYYCNAQVLVRPIQGEYGYWGRGTQVTVSS”: “low polyreactivity”; “QVQLVESGGGLVQAGGSLRLSCAASGRILPRNSMGWSRQAPGKERELVAGISSDGSTKYADSVKGRFTISRDNAKNTVYLQMNSLKPEETAVYYCAADVVYDPNLYGYWGQGTQVTVSS”: “low polyreactivity”; “QVQLVESGGGLVQAGGSLRLSCAASGRILPWYAMGWYRQAPWKERELVAGISSNGGSTYYADSVKGRFTSSRDNPKNTVYLQMNSLKTEDTAVYYCAARVWYWRHYPSDYWGQGTQVTVSS”: “high polyreactivity”. Regarding “QVQLVESGGGLVQAGGSLRLSCAASGRILQYNVMGWYRQAPGKERELVATISSGGTTNYADSVKGRFTISRDNAKNTVYLQMNSLKPEDTAVYYCAAGLPRKRVQYDYWGQGTQVTVSS”, the “polyreactivity (PSR sort gate)” value is “low polyreactivity”. For “QVQLVESGGGLVQAGGSLRLSCAASGRILRPNAMGWYRQAPGKEREMVAAISVSGGRTYYADSVKGRFTISRDNAKNTVYLQMNSLKPEDTAVYYCAAKYKRGYDYWGQGTQVTVSS” the value was “high polyreactivity”; for “QVQLVESGGGLVQAGGSLRLSCAASGRILRTYAMGWYRQPPGKETELVAAITWSGASTYYADSVKGRFTISRDNAMNTVYLQMNSLKPEDTAVYYCNALSPGYRIYDYWGQGTQETVSS”, “high polyreactivity”.
